Test results reported in patent publication US20200087364A1 (IMMATICS BIOTECHNOLOGIES, published 2020).

Target: T1, HLA-A*01:01 (human)
T1 construct: MHC class I monomer first loaded with a UV-sensitive peptide (not identified) that is cleaved by UV irradiation and exchanged for the tested peptide; captured on streptavidin plates, detected with anti-β2m; also called peptide-receptive MHC molecules
Test: UV-ligand exchange, anti-b2m ELISA
From the text: Candidate peptides for T cell based therapies according to the present invention were further tested for their MHC binding capacity (affinity). The individual peptide-MHC complexes were produced by UV-ligand exchange, where a UV-sensitive peptide is cleaved upon UV-irradiation and exchanged with the peptide of interest as analyzed. Only peptide candidates that can effectively bind and stabilize the peptide-receptive MHC molecules prevent dissociation of the MHC complexes. To determine the yield of the exchange reaction, an ELISA was performed based on the detection of the light chain (β2m) of stabilized MHC complexes. The assay was performed as generally described in Rodenko et al. (Rodenko et al., 2006)
96 well MAXISorp plates (NUNC) were coated over night with 2 ug/ml streptavidin in PBS at room temperature, washed 4× and blocked for 1 h at 37° C. in 2% BSA containing blocking buffer. Refolded HLA-A*02:01/MLA-001 monomers served as standards, covering the range of 15-500 ng/ml. Peptide-MHC monomers of the UV-exchange reaction were diluted 100-fold in blocking buffer. Samples were incubated for 1 h at 37° C., washed four times, incubated with 2 ug/ml HRP conjugated anti-β2m for 1 h at 37° C., washed again and detected with TMB solution that is stopped with […]. Absorption was measured at 450 nm.

Row | Binder | peptide exchange yield [%]
1 | IPQDECLRY | 50 to 75
2 | FLFNDALLY | > 75
3 | ATDMEGNLNY | 50 to 75
4 | LLPLLVMAY | 20 to 50
5 | TCSHTFVYY | 20 to 50
6 | LTDSFLLRF | > 75
7 | YPDLSELLM | 20 to 50
8 | GIEMTYETY | 20 to 50
9 | VLDSLLAQY | > 75
10 | AQEAAVFLTLY | 50 to 75
11 | YADIHGDLL | 50 to 75
12 | RYLNIVHATQLY | 20 to 50
13 | NVKHFLNDLY | 50 to 75
14 | VTDIDELGK | 50 to 75
15 | CVIETFHKY | 50 to 75
16 | ETILVSSSY | 20 to 50
17 | ETDWGLLKGHTY | > 75
18 | TTEMVSNESVDY | > 75
19 | QITSFASGTSY | 50 to 75
20 | GTNLPTLLW | 10 to 20
21 | CGPNEINHFY | 20 to 50
22 | PSEVPVDSHYY | 50 to 75
23 | LPAPGFLFY | 20 to 50

Row | Binder | peptide exchange yield [%]
24 | YRDPVFVSL | 20 to 50
25 | DCMDTEGSYM | 20 to 50
26 | AILHHLYFY | 10 to 20
27 | LMTVLLKY | 50 to 75
28 | ESAPKEVSRY | 20 to 50
29 | MTEGSTVNTEY | > 75
30 | VAEPPVVCSY | 20 to 50
31 | SIEIDHTQY | 20 to 50
32 | LSDIDSRYI | 20 to 50
33 | DTDPLKAAGL | 10 to 20
34 | PSEVPVDSHY | > 75
35 | KPTEDSANVY | 50 to 75
36 | KSEMNVNMKY | > 75
37 | AATVKSDIY | 20 to 50
38 | KSFDDIAKY | 20 to 50
39 | DLKIDLAAQY | 20 to 50
40 | VLPHHSEGACVY | 50 to 75
41 | IVADDTVY | 50 to 75
42 | HAFESNNFIY | 20 to 50
43 | LTSEDTGAY | 50 to 75
44 | ARLEGEIATY | 20 to 50
45 | ESDEMENLLTY | 50 to 75
46 | WELDSLEY | 20 to 50

Row | Binder | peptide exchange yield [%]
47 | APDEVVALL | 20 to 50
48 | LPSPAATIWDY | 50 to 75
49 | ASDDFRSKY | 50 to 75
50 | VTKYIAGPY | 20 to 50
51 | SLMVASLTY | 20 to 50
52 | YLESHGLAY | > 75
53 | QAMPSWPTAAY | 20 to 50
54 | DTTSHTYLQY | 20 to 50
55 | LSDNAANRY | 50 to 75
56 | MTDVFIDY | 50 to 75
57 | GYVCNACGLY | 20 to 50
58 | QITPKHNGLY | 20 to 50
59 | NLDHYTNAY | 50 to 75
60 | AMMQEAQLAY | 50 to 75
61 | GVGFTELEY | 50 to 75
62 | ENSIEDLQY | 50 to 75
63 | SMIRVGTNY | 20 to 50
64 | YTDLTTIQV | > 75
65 | RPSSVLTIY | 50 to 75
66 | RINSATGQY | 20 to 50
67 | SSERGSPIEKY | 50 to 75
68 | EVLDSLLAQY | 20 to 50
